Measured values: publication PMC9368917

Molecular target: T1, 3xFLAG-STM0347 (Salmonella enterica serovar Typhimurium (strain not stated in the given text)) (UniProt H9L417)
T1 sequence: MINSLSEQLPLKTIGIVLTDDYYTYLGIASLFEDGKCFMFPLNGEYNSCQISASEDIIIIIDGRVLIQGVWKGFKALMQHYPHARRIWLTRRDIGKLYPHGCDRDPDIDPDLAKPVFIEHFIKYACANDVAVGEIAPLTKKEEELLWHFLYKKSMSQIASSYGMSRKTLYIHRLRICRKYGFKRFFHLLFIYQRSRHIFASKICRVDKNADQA
Test: EMSA
Details: 10 mM Tris-HCl pH 8.3, 50 mM KCl, 1 mM MgCl2, 0.5 mM DTT, 0.5 mM EDTA, 50 ug/mL BSA, 0.2% glycerol; room temperature 20 min; 6% native PAGE in 1x TAE in ice …

For “CATCGCTCAAAACACTACCAGACACAGTATTCACCTGGAAAGGCTTTTTAATCAAAATGTTAGATGTAAGCAATTACGGACAGAAAAAATAGTAAAGTTTATGCCTCAAGTGTCGATAACCTGGATGACACAGGTAAGCCTGGCATAACATTGGTTATCAAAAACCTTCCAAAAGGAAAATTTTATGGCACAAGTAATCAACACTAACAGTCTGTCGCTGCTGACCCAGAATAACCTGAACAAATCCCAGTCCGCACTGGGCACCGCTATCGAGCGTCTGTCTTCTGGTCTGCGTATCAA (double strand) [fljB promoter fragment]”, the binding was “no binding”.
